Measurements from US20230265124A1 (ARIZONA BOARD OF REGENTS ON BEHALF OF THE UNIVERSITY OF …, published 2023).
Bridges are numbered along the chain shown (N, C = ends). Where no end group is shown, it is not given here. [ ]: non-standard residue; d: D form. glucose = glucose (covalently linked to the residue side chain); Dap = NC[C@H](N)C(=O)O; Aib = CC(C)(N)C(=O)O

Target: T1, human Mu Opioid Receptor (MOR) (human, UniProt P35372 1-400)
T1 construct: whole, on cells; also called MOR-CHO(PE)
Assay: competition binding against [3H]diprenorphine on MOR-CHO(PE) membranes
Procedure: Competition Binding at MOR-CHO(PE) Presence of [3H]Diprenorphine: The compounds were also tested for off-target binding to the human Mu Opioid Receptor (MOR), also expressed in CHO cells. Briefly, the experiment involved: Protein: MOR-CHO(PE) Passage: 16; previously frozen cell pellets used and prepared. Protein 15 ug/well used. Serial dilution of compounds and Naloxone(control) used. Total binding absence of compound used, 10uM Naloxone used for nonspecific binding. Each well contained membrane 15 ug/well protein and 2.48 nM Radioligand final conc. Incubated 1 hour in R/T; harvested on GF/B filter, dried O/N. Data are normalized to % Specific binding. MOR-CHO(PE) cell Kd:5.27±2.39 nM. Data are expressed as mean of a single experiment, performed in triplicate. Vehicle contained 0.1% DMSO and 0.1% BSA. (Radioligand:#23067 Lot:2548344 NET: 1121250UC). Table 1 below also summarizes overall MOR binding profile of cyclic oligopeptides of the invention compared to naloxone.

T1 sequence (P35372 whole entry): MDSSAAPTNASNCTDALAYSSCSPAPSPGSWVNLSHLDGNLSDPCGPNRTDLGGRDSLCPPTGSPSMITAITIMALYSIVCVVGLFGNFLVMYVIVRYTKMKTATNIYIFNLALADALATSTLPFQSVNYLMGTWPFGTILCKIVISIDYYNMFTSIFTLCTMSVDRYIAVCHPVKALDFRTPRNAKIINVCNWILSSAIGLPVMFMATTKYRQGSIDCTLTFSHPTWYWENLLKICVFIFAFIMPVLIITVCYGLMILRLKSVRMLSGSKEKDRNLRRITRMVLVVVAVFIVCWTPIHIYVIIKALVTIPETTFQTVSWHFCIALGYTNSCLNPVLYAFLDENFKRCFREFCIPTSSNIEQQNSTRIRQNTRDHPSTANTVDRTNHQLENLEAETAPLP

B1: 2LS118-6 (peptide)
peptide: DYIQN[Dap]PLGS(glucose)S(glucose)-NH2
modifications: lactam 1-6
notes: Synthetic cyclic glycopeptide: Asp-Tyr-Ile-Gln-Asn-Dap-Pro-Leu-Gly-(SerGlc)2-CONH2, cyclized AA1-AA6
**Q.** B1 was tested. Which IC50 did it give?
**A.** Its IC50 is over 2500 nM.

**Q.** And the Ki?
**A.** The Ki was over 2500 nM.

B2: SSoxy3 (peptide)
peptide: DYIQN[Dap]P[Aib]S(glucose)-NH2
modifications: lactam 1-6
notes: Synthetic cyclic glycopeptide: Asp-Tyr-Ile-Gln-Asn-Dap-Pro-Aib-SerGlc-CONH2, cyclized AA1-AA6
**Q.** B2 was tested. Which IC50 did it give?
**A.** Its IC50 is over 2500 nM.

**Q.** And the Ki?
**A.** The Ki was over 2500 nM.

B3: SSoxy5 (peptide)
peptide: EYIQN[Dap]P[Aib]S(glucose)-NH2
modifications: lactam 1-6
notes: Synthetic cyclic glycopeptide: Glu-Tyr-Ile-Gln-Asn-Dap-Pro-Aib-SerGlc-CONH2, cyclized AA1-AA6
**Q.** How did the IC50 turn out when B3 was run?
**A.** The IC50 was over 2500 nM.

**Q.** And the Ki?
**A.** The Ki was over 2500 nM.

B4: SSoxy1 (peptide)
peptide: DYIQN[Dap]PLS(lactose)-NH2
modifications: lactam 1-6
notes: Synthetic cyclic glycopeptide: Asp-Tyr-Ile-Gln-Asn-Dap-Pro-Leu-SerLact-CONH2, cyclized AA1-AA6
**Q.** With B4 as the binder, how does the IC50 read?
**A.** Its IC50 is over 2500 nM.

**Q.** And the Ki?
**A.** Its Ki is over 2500 nM.

B5: SSoxy6 (peptide)
peptide: EYIQN[Dap]P[Aib]GS(glucose)-NH2
modifications: lactam 1-6
notes: Synthetic cyclic glycopeptide: Glu-Tyr-Ile-Gln-Asn-Dap-Pro-Aib-Gly-SerGlc-CONH2, cyclized AA1-AA6
**Q.** B5 was tested. Which IC50 did it give?
**A.** The IC50 was over 2500 nM.

**Q.** What about the Ki of the same binder?
**A.** Its Ki is over 2500 nM.

B6: SSoxy2 (peptide)
peptide: DYIQN[Dap]PLGS(lactose)-NH2
modifications: lactam 1-6
notes: Synthetic cyclic glycopeptide: Asp-Tyr-Ile-Gln-Asn-Dap-Pro-Leu-Gly-SerLact-CONH2, cyclized AA1-AA6
**Q.** Which IC50 does the source give for B6 here?
**A.** The IC50 was over 2500 nM.

**Q.** What about the Ki of the same binder?
**A.** Its Ki is over 2500 nM.

B7: 2LS118-5 (peptide)
peptide: DYIQN[Dap]PLGS(glucose)-NH2
modifications: lactam 1-6
notes: Synthetic cyclic glycopeptide: Asp-Tyr-Ile-Gln-Asn-Dap-Pro-Leu-Gly-SerGlc-CONH2, cyclized AA1-AA6
**Q.** Which IC50 does the source give for B7 here?
**A.** Its IC50 is over 2500 nM.

**Q.** And the Ki?
**A.** Its Ki is over 2500 nM.

B8: 2LS118-4 (peptide)
peptide: DYIQN[Dap]PLS(glucose)-NH2
modifications: lactam 1-6
notes: Synthetic cyclic glycopeptide: Asp-Tyr-Ile-Gln-Asn-Dap-Pro-Leu-SerGlc-CONH2, cyclized AA1-AA6; also called compound 2LS118-4
**Q.** B8 was tested. Which IC50 did it give?
**A.** Its IC50 is over 2500 nM.

**Q.** What about the Ki of the same binder?
**A.** The Ki was over 2500 nM.

B9: 2LS118-1 (peptide)
peptide: DYIQN[Dap]PLG-NH2
modifications: lactam 1-6; N-terminus assumed
SMILES: CC[C@H](C)[C@@H]1NC(=O)[C@H](Cc2ccc(O)cc2)NC(=O)[C@@H](N)CC(=O)NC[C@@H](C(=O)N2CCC[C@H]2C(=O)N[C@@H](CC(C)C)C(=O)NCC(N)=O)NC(=O)[C@H](CC(N)=O)NC(=O)[C@H](CCC(N)=O)NC1=O
notes: Synthetic cyclic oxytocin analogue: Asp-Tyr-Ile-Gln-Asn-Dap-Pro-Leu-Gly-CONH2, cyclized AA1-AA6; also called compound 2LS118-1
**Q.** B9 was tested. Which IC50 did it give?
**A.** Its IC50 is over 2500 nM.

**Q.** And the Ki?
**A.** Its Ki is over 2500 nM.

B10: 2LS118-2 (peptide)
peptide: EYIQN[Dap]PLG-NH2
modifications: lactam 1-6; N-terminus assumed
SMILES: CC[C@H](C)[C@@H]1NC(=O)[C@H](Cc2ccc(O)cc2)NC(=O)[C@@H](N)CCC(=O)NC[C@@H](C(=O)N2CCC[C@H]2C(=O)N[C@@H](CC(C)C)C(=O)NCC(N)=O)NC(=O)[C@H](CC(N)=O)NC(=O)[C@H](CCC(N)=O)NC1=O
notes: Synthetic cyclic oxytocin analogue: Glu-Tyr-Ile-Gln-Asn-Dap-Pro-Leu-Gly-CONH2, cyclized AA1-AA6
**Q.** How did the IC50 turn out when B10 was run?
**A.** The IC50 was over 2500 nM.

**Q.** What about the Ki of the same binder?
**A.** Its Ki is over 2500 nM.

B11: SSoxy4 (peptide)
peptide: EYIQN[Dap]PLS(glucose)-NH2
modifications: lactam 1-6
notes: Synthetic cyclic glycopeptide: Glu-Tyr-Ile-Gln-Asn-Dap-Pro-Leu-SerGlc-CONH2, cyclized AA1-AA6
**Q.** How did the IC50 turn out when B11 was run?
**A.** The IC50 was over 2500 nM.

**Q.** And the Ki?
**A.** Its Ki is over 2500 nM.

B12: 2LS118-3 (peptide)
peptide: [Dap]YIQNDPLG-NH2
modifications: lactam 1-6; N-terminus assumed
SMILES: CC[C@H](C)[C@@H]1NC(=O)[C@H](Cc2ccc(O)cc2)NC(=O)[C@@H](N)CNC(=O)C[C@@H](C(=O)N2CCC[C@H]2C(=O)N[C@@H](CC(C)C)C(=O)NCC(N)=O)NC(=O)[C@H](CC(N)=O)NC(=O)[C@H](CCC(N)=O)NC1=O
**Q.** Which IC50 does the source give for B12 here?
**A.** The IC50 was over 2500 nM.

**Q.** And the Ki?
**A.** The Ki was over 2500 nM.
